According to patent publication US20060015949A1:

Assays:
[1] = molecular target: recombinant soluble human CD4 (human) (UniProt P01730); assay: SPR, sCD4 amine-coupled to sensor chip, mAb flowed over
[2] = molecular target: recombinant soluble human CD4 (human) (UniProt P01730); assay: BIAcore, rCD4 coupled to chip, mAb flowed over (avidity)
[3] = molecular target: recombinant soluble human CD4 (human) (UniProt P01730); assay: BIAcore on rCD4 (column repeats Table 19)
[4] = molecular target: recombinant soluble human CD4 (human) (UniProt P01730); assay: ratio of Ka on rCD4 (BIAcore) to Ka on nCD4 (SupT1 flow cytometry)
[5] = molecular target: native human CD4 on the cell surface (human) (UniProt P01730); assay: flow cytometry, serial dilutions on SupT1 cells, half-maximal fluorescence
[6] = molecular target: recombinant soluble human CD4 (human) (UniProt P01730); assay: BIAcore, mAb captured by goat anti-human IgG Fc on chip, rCD4 flowed over (affinity)

Substance | Ka [1] | koff [1] | kon [1] | Ka [2] | koff [2] | kon [2] | Ka [3] | Ratio of Ka (rCD4/nCD4) [4] | Ka [5] | Ka [6] | koff [6] | kon [6]
Leu3a (antibody) | 3.7e+10 M⁻¹ | 0.00042 s⁻¹ | 150000 M⁻¹ s⁻¹ | 3.7e+10 M⁻¹ | 4.2e-06 s⁻¹ | 150000 M⁻¹ s⁻¹ |  |  |  |  |  | 
chimeric Leu3a (antibody) |  |  |  | 3.4e+10 M⁻¹ | 1.2e-05 s⁻¹ | 400000 M⁻¹ s⁻¹ | 3.4e+10 M⁻¹ | 6.1 | 5.6e+09 M⁻¹ | 6.6e+08 M⁻¹ | 0.00023 s⁻¹ | 150000 M⁻¹ s⁻¹
